Positions count from the first letter of the chain named. Numbers in names are those of the source.
T1: His-tagged recombinant Human TIGIT (human, UniProt Q495A1 22-141)
T1 construct: also called VSIG9; VSTM3; not shown: His tag
T1 sequence (looked up): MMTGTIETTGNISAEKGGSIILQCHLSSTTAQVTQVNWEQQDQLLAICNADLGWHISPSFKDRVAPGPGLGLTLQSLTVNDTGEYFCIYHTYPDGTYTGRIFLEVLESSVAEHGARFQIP

T2: His-tagged recombinant Mouse TIGIT (mouse, UniProt P86176 29-148, limits assumed)
T2 construct: coated antigen of the direct ELISA; not shown: His tag
T2 sequence (looked up): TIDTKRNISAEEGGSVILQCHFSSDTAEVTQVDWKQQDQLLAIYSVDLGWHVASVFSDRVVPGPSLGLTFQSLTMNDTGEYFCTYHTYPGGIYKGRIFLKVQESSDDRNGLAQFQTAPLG

T3: His-tagged recombinant Human TIGIT (human, UniProt Q495A1 22-141)
T3 construct: coated antigen of the direct ELISA; not shown: His tag
T3 sequence (looked up): T1 sequence (looked up)

T4: human TIGIT fused to a beta galactosidase portion, on YTS cells (YTS_hTIGIT/hGrb2) (human, UniProt Q495A1 22-244)
T4 sequence (looked up): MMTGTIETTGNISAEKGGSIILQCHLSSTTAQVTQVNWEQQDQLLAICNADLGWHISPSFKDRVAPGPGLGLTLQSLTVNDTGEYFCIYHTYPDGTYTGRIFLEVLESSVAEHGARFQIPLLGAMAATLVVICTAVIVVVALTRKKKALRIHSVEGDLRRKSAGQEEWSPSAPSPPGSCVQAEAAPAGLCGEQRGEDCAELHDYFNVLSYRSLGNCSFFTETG

T5: biotinylated human TIGIT (human, UniProt Q495A1 22-141, biotinylated (EZ-Link NHS-PEG4-biotin kit))
T5 construct: extracellular domain; also called TIGIT-ECD
T5 sequence (looked up): T1 sequence (looked up)

T6: mouse TIGIT-Fc (mouse, UniProt P86176 29-148)
T6 construct: extracellular domain; also called TIGIT-ECD; not shown: Fc
T6 sequence (looked up): T2 sequence (looked up)

T7: His-tagged recombinant Mouse TIGIT (mouse, UniProt P86176 29-148, limits assumed)
T7 construct: not shown: His tag
T7 sequence (looked up): T2 sequence (looked up)

B1: Ab76 (Fab, V domains shown)
VH: EVQLLESGGGLVQPGGSLRLSCAASGFTFDSYSMHWVRQAPGKGLEWVSAISGSGGSTYYADSVKGRFTISRDNSKNTLYLQMNSLRAEDTAVYYCARVPYSVWIDYWGQGTLVTVSS
VL: not shown
notes: ARV set
B2: Ab131 (Fab, V domains shown)
VH: B1 VH with D30S, S33A, H35S, A50D, S52K, G53S, G55A, Y59S
VL: not shown
notes: ARV set
B3: Ab185 (Fab, V domains shown)
VH: EVQLLESGGGLVQPGGSLRLSCAASGFTFSSYAMSWVRQAPGKGLEWVAAIKSNAGSSYYADSVKGRFTISRDNSKNTLYLQMNSLRAEDTAVYYCAREPYSYWLDYWGQGTLVTVSS
VL: not shown
notes: ARE set
B4: Ab124 (Fab, V domains shown)
VH: B3 VH with A33S, S35H, A50S, S53G, N54S, G56S, S57Y, E99V, S102D, L105M
VL: not shown
notes: ARV set
B5: Ab145 (Fab, V domains shown)
VH: B3 VH with A50S, K52S, N54S, A55T, S57Y, S58T, Y59S
VL: not shown
notes: ARE set
B6: Ab153 (Fab, V domains shown)
VH: EVQLLESGGGLVQPGGSLRLSCAASGFTFSSYSMHWVRQAPGKGLEWVSSINSNAGTISYADSVKGRFTISRDNSKNTLYLQMNSLRAEDTAVYYCARVPYDYWIDYWGQGTLVTVSS
VL: not shown
notes: ARV set
B7: Ab95 (Fab, V domains shown)
VH: B3 VH with A50S, N54S, A55T, S57Y, S58I, Y59G
VL: not shown
notes: ARE set
B8: Ab165 (Fab, V domains shown)
VH: B3 VH with N54S, A55T, S57T, S58I, Y103V
VL: not shown
notes: ARE set
B9: Ab148 (Fab, V domains shown)
VH: B6 VH with H35S, S49A, N52K, S53G, N54S, T57Y, S59Y, I105M
VL: not shown
notes: ARV set
B10: Ab175 (Fab, V domains shown)
VH: B6 VH with S50A, T57S, I58S, D102G, Y103V, I105M
VL: not shown
notes: ARV set
B11: Ab157 (Fab, V domains shown)
VH: B6 VH with H35N, S49A, T57S, I58T, S59Y, I105M
VL: not shown
notes: ARV set
B12: Ab169 (Fab, V domains shown)
VH: B6 VH with S49A, N52K, N54D, A55T, G56S, T57S, I58T, S59Y
VL: not shown
notes: ARV set
B13: Ab197 (Fab, V domains shown)
VH: B1 VH with D30S, S49A, A50Y, S52K, G55A, Y59S, S102G, I105M
VL: not shown
notes: ARV set
B14: Ab1 (Fab, V domains shown)
VH: B1 VH with D30S, S33A, A50G, G53S, S54N, Y59S
VL: not shown
B15: Ab1i9 (antibody, V domains shown)
VH: B1 VH with D30S, S33A, A50G, G53S, S54N, Y59S, V99A
VL: not shown
notes: mIgG2a of Ab1, V95A
B16: Ab17i1 (antibody, V domains shown)
VH: B3 VH with A50S, N54S, A55G, S57N, S58T, L105M
VL: not shown
notes: hIgG1 of Ab17
B17: Ab16i1 (antibody, V domains shown)
VH: B1 VH with D30S, S49A, S52K, G53S, G56S, Y59S, S102D, V103Y, I105L
VL: not shown
B18: Ab1i8 (antibody, V domains shown)
VH: B1 VH with D30S, S33A, A50G, G53S, S54N, Y59S, S102G
VL: not shown
notes: mIgG2a of Ab1, S98G
B19: Ab1i5 (antibody, V domains shown)
VH: B1 VH with D30S, S33A, A50G, G53S, S54N, Y59S, I105A
VL: not shown
notes: mIgG2a of Ab1, I100aA
B20: Ab1i7 (antibody, V domains shown)
VH: B1 VH with D30S, S33A, A50G, G53S, S54N, Y59S, S102A
VL: not shown
notes: mIgG2a of Ab1, S98A
B21: Ab17i2 (antibody, V domains shown)
VH: B3 VH with A50S, N54S, A55G, S57N, S58T, L105M
VL: not shown
notes: mIgG2a of Ab17
B22: Ab1i6 (antibody, V domains shown)
VH: B1 VH with D30S, S33A, A50G, G53S, S54N, Y59S, P100A
VL: not shown
notes: mIgG2a of Ab1, P96A
B23: Ab53i8 (antibody, V domains shown)
VH: EVQLLESGGGLVQPGGSLRLSCAASGFTFSSYSMHWVRQAPGKGLEWVASIKYSSSNKYYADSVKGRFTISRDNSKNTLYLQMNSLRAEDTAVYYCARGPYDVWLDYWGQGTLVTVSS
VL: not shown
notes: mIgG2a of Ab53, S52aY
B24: Ab40 (Fab, V domains shown)
VH: B23 VH with S33G, H35N, S50G, S56G, L105M
VL: not shown
B25: Ab40i2 (antibody, V domains shown)
VH: B23 VH with H35N, S50G, S56G, L105M
VL: not shown
notes: hIgG1 of Ab40, G33S
B26: Ab53i5 (antibody, V domains shown)
VH: B23 VH with S33G
VL: not shown
B27: Ab53i7 (antibody, V domains shown)
VH: B23 VH
VL: not shown
notes: hIgG1 of Ab53, S52aY
B28: Ab40i1 (antibody, V domains shown)
VH: B23 VH with S33G, H35N, S50G, S56G, L105M
VL: not shown
notes: hIgG1 of Ab40
B29: Ab1i3 (antibody, V domains shown)
VH: B1 VH with D30S, S33A, A50G, G53S, S54N, Y59S
VL: not shown
B30: Ab1i1 (antibody, V domains shown)
VH: B1 VH with D30S, S33A, A50G, G53S, S54N, Y59S
VL: not shown
B31: Ab1i11 (antibody, V domains shown)
VH: B1 VH with D30S, S33A, A50G, G53S, S54N, Y59S, W104A
VL: not shown
notes: mIgG2a of Ab1, W100A
B32: Ab1i12 (antibody, V domains shown)
VH: B1 VH with D30S, S33A, A50G, G53S, S54N, Y59S, Y101A
VL: not shown
notes: mIgG2a of Ab1, Y97A

Each binder was assayed against T1, His-tagged recombinant Human TIGIT (assay: ELISA, coated His-tagged human TIGIT).
Method: (§1) Binding affinities for antigen binding to anti-TIGIT monoclonal antibodies were determined by ELISA. […] Antibodies to be tested were diluted to 1 μM in PBS buffer containing 1% BSA and diluted 3-fold in a 10-point curve. […] Detection of the secondary antibody was determined using streptavidin-HRP and TMB reagent. All assays were performed at room temperature. Curve-fitting software was used to determine the EC₅₀ for each antibody.

| Binder | EC50 [nM] |
| --- | --- |
| B1 | 68.1 |
| B2 | 7.2 |
| B3 | 81.7 |
| B4 | 34.3 |
| B5 | 232 |
| B6 | 87.7 |
| B7 | 357 |
| B8 | 12.8 |
| B9 | 168 |
| B10 | 5.2 |
| B11 | 165 |
| B12 | 153 |
| B13 | 11.1 |

What follows are binders tested against T2, His-tagged recombinant Mouse TIGIT (assay: ELISA).
Method: as §1

| Binder | EC50 [nM] |
| --- | --- |
| B14 | 181 |
| B15 | 2.3 |
| B16 | 0.1 |
| B17 | 0.5 |
| B18 | 26.3 |
| B19 | 6.8 |
| B20 | 72.9 |
| B21 | 0.2 |

Each binder was assayed against T3, His-tagged recombinant Human TIGIT (assay: ELISA).
Method: as §1

| Binder | EC50 [nM] |
| --- | --- |
| B14 | 40.3 |
| B22 | 29.4 |
| B23 | 1.7 |
| B24 | 0.3 |
| B15 | 0.6 |
| B25 | 0.2 |
| B17 | 2.1 |
| B18 | 1.7 |
| B19 | 8 |
| B26 | 0.2 |
| B27 | 3.2 |
| B20 | 3.8 |
| B28 | 0.3 |

What follows are binders tested against T4, human TIGIT fused to a beta … (assay: cell-based or functional assay).

| Binder | YTS_hTIGI/hGrbs_EFC_Agonism, 221_WT [µM] | YTS_hTIGI/hGrbs_EFC_Antagonism, 221_hPVR/ICAM [µM] |
| --- | --- | --- |
| B29 | > 1 | 0.172 |
| B30 | 0.0091 | > 1 |
| B23 | 0.02 | > 1 |
| B24 | > 1 | 0.0023 |
| B25 | 0.0011 | 0.186 |
| B16 | 0.0012 | > 1 |
| B26 | 0.0057 | 0.526 |
| B27 | 0.0681 | 1.93 |
| B21 | – | > 1 |
| B28 | > 1 | 0.0002 |

The binders below were run against T5, biotinylated human TIGIT (assay: comp. ELISA vs PVR).
Method: (§2) Antibodies were serially diluted in a 10-point curve starting at 1 μM in 3-fold steps. […] Units are in microM.

| Binder | IC50 [nM] |
| --- | --- |
| B14 | 89.9 |
| B22 | 46.9 |
| B31 | > 1000 |
| B32 | > 1000 |
| B23 | 12.5 |
| B24 | 3.8 |
| B15 | 2.3 |
| B25 | 2 |
| B17 | 2.1 |
| B18 | 5.8 |
| B19 | 2.8 |
| B26 | 2.1 |
| B27 | 36.3 |
| B20 | 16.1 |
| B28 | 1.3 |

These binders were tested against T6, mouse TIGIT-Fc (assay: comp. ELISA vs PVR).
Method: as §2

| Binder | IC50 [nM] |
| --- | --- |
| B14 | 632 |
| B22 | > 1000 |
| B31 | > 1000 |
| B32 | > 1000 |
| B24 | > 1000 |
| B15 | 9 |
| B25 | > 1000 |
| B16 | 1.1 |
| B17 | 0.4 |
| B18 | 99.3 |
| B19 | 13.3 |
| B26 | > 1000 |
| B20 | 183 |
| B21 | 1.6 |
| B28 | > 1000 |

What follows are binders tested against T7, His-tagged recombinant Mouse TIGIT (assay: ELISA, coated His-tagged mouse TIGIT).
Method: as §1

| Binder | EC50 [nM] |
| --- | --- |
| B1 | 65.7 |
| B2 | 331 |
| B3 | 101 |
| B4 | 14.1 |
| B5 | 50.4 |
| B6 | 13.9 |
| B7 | 100 |
| B8 | 228 |
| B9 | 16.4 |
| B10 | 39.3 |
| B11 | 116 |
| B12 | 110 |
| B13 | 81.4 |

Source: patent US20200339678A1 (RIGEL PHARMACEUTICALS, published 2020)
